System: MS2 coat protein
Assay: apparent KD of MS2 coat protein; designed switch direction (-1 OFF switch, 1 ON switch): -1; higher = weaker reporter binding
How it was run: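 Designed RNA switches were transcribed on Illumina chips by stalled E. coli RNA polymerase and titrated with SNAP-549-labelled MS2 coat protein from 0.7 or 1.5 nM, doubling to 3 µM. Step length ran from 0.8–1.5 h at the lowest concentration to 10–20 min at the highest. The apparent KD is the median over clusters for each design, from curve-fitted normalised cluster fluorescence.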

[1] = Eterna round: R95, input ligand: microRNA oligo, concentration not stated
[2] = input ligand: microRNA oligo, concentration not stated
[3] = Eterna round: R95, input ligand: FMN 200 uM
[4] = Eterna round: R95, input ligand: none

Sequence	apparent KD of MS2 coat protein [1]	apparent KD of MS2 coat protein (input ligand: FMN 200 uM)	apparent KD of MS2 coat protein [2]	apparent KD of MS2 coat protein (input ligand: none)	apparent KD of MS2 coat protein [3]	apparent KD of MS2 coat protein [4]
AUAUAUAGUGUGAGGAUAUGCUGGUCCUUGGAUCAGCAGAAGGCACAUGAGGAUCACCCAUGUAGUUAAAUAUA [Mat - Exclusion 4 - JL Mod - D19] (puzzle: Brourd's mod of Exclusion 4)	32.1 nM	–	–	–	–	–
UUUUUAUCUGAAGGAUAUACUUAACAUGAGGAUCACCCAUGUGGUGUUGUGAGUGAGUGAGUUUAGUAGAAGGUCAAUUAUUUU [JMF's solution 19] (Eterna round: R96, puzzle: Exclusion NG 2)	–	1310 nM	392 nM	380 nM	–	–
CAGUACUGAGGAUAUACAUGAGGAUCACCCAUGUGAGUGAUACUAGUGAGGUCGAUUAGUAGAAGGCAGUACUG [Mat X3R4 m27] (Eterna round: R97, puzzle: Exclusion 3)	–	1110 nM	–	123 nM	–	–
UAACUACAUGAGGAUCACCCAUGUCAGGAUAUGCCGUUAAAUUAACAUCAACAUACGGGUAGAAGGGACAGCGU [1st #4] (Eterna round: R97, puzzle: Exclusion 1)	–	30 nM	–	29.2 nM	–	–
GUAAUGAUUGUGAGGAUAUUUCAUAGAUAGAUAUUAGAGAAGGUACAUGAGGAUCACCCAUGUGUGAUUAUACA [Brourd's EX4 #72] (Eterna round: R97, puzzle: Brourd's mod of Exclusion 4)	–	97.3 nM	–	114 nM	–	–
ACCUCACUUGAGGAUCACCCAAGUCAGGAUAUACUCGUUUGCCGCACGACGCGGCAUUGUAGAAGGGACGGGUU [Arveatat] (Eterna round: R97, puzzle: Exclusion 1)	–	35.1 nM	–	17.9 nM	–	–
UGUAUCCGAGGAUAUCGCUUGAGGGACAUGAGGAUCACCCAUGUGAAGAAAAGCGUCCCGCGAGAAGGCGGACCCA [EX5 B.24] (Eterna round: R97, puzzle: Exclusion 5)	–	189 nM	–	66.4 nM	–	–
CCUCUAACCUAGGAUAUAGGUAGACCUAGUCGCCUAGAAGGAGGUACAUGAGGAUCACCCAUGUAUAUUGGGCU [Inmaor] (puzzle: Exclusion 6)	173 nM	–	–	–	–	–
GAUUACUGCAAGCUUUGGGACAUGAGGAUCACCCAUGUUCGUCUUAUUGAUCUAGGUACGCUGACGUACCUAGAUCU [JL-sv1-2.28 Brourd mod] (puzzle: Sensor v3, turn-off variant 1)	26 nM	–	–	–	15.8 nM	14.1 nM
GCUGGUCGAGGAUAUGCAAUCGUGCUUCGGCACGUAAGGUCACAUGAGGAUCACCCAUGUAGAAGGCGACCAGC [E2/4-A1] (Eterna round: R97, puzzle: Exclusion 2)	–	32.5 nM	–	19.2 nM	–	–
AAUUUAUGAGGAUAUACAGUGUAAAACAUGAGGAUCACCCAUGUUCUUCAAUUAGUAUUUGUAGAAGGCAUAUGUA [JR_Ex5_Sub095] (Eterna round: R97, puzzle: Exclusion 5)	–	17.2 nM	–	17.1 nM	–	–
CCAUCGAGUGUGAGGAUAUGCUGGUCCAUAGAUCAGCAGAAGGCACAUGAGGAUCACCCAUGUGGAGACGGUGG [Mat - Exclusion 4 - JL Mod - D78] (Eterna round: R96, puzzle: Brourd's mod of Exclusion 4)	–	–	31 nM	–	–	–
AAUGAUUGACGAGGAUAUUGUGUUAGAUCACGACGAGAAGGCGUUUGUCACAUGAGGAUCACCCAUGUGAGCCUUGUGGAUAGA [Ex NG1 #76] (Eterna round: R96, puzzle: Exclusion NG 1)	–	56.6 nM	15.6 nM	21.5 nM	–	–
UCGGCGCGAGGAUAUACGUUUGCGCGUUUUCGUUUUUGCGUACAUGAGGAUCACCCAUGUAGAAGGCGCGCCGC [Apr-15 SS2-16] (puzzle: Exclusion 2)	11.4 nM	–	–	–	–	–
AUGUACCGGUGAGGAUAUUUAUAAUAGAGCUUUAUGAUAUACAUGAGGAUCACCCAUGUUACUUUAAAGAAGGCAUCGGAUUAA [Mat - Exclusion NG 2 - Mod of JL - D91] (Eterna round: R96, puzzle: Exclusion NG 2)	–	15.3 nM	15.3 nM	21.2 nM	–	–
UUUUAGUCAGGAUAUACAUGAGGAUCACCCAUGUAAAAUUUUAAUUUAAUUUGAAGGUGUAGAAGGGACAUUUU [Ex3 #40] (Eterna round: R97, puzzle: Exclusion 3)	–	25.9 nM	–	27.8 nM	–	–
GUCCUGGACUAUCACAAGCACAUGAGGAUCACCCAUGUCAUGGGUAGAUCCCUAAAUAAAGAUACUGCUCGUCUUAU [Cac sensor turnoff var1 sub6] (Eterna round: R97, puzzle: Sensor, turn-off variant 1)	–	160 nM	–	300 nM	–	–
CUAUUCCGAGGAUAUACAUGAGGAUCACCCAUGUCGGGCCUCUGCGUUUAGCGCGAAAGUAGAAGGUGGGUUUC [JL Riri mod 9] (puzzle: Exclusion 3)	28.3 nM	–	–	–	–	–
UACAGACAUGAGGAUCACCCAUGUUAGGAUAUGCAGAACUCUACUCACGUGGCGUUUAGCAGAAGGAAUACGGG [Eternabot (L1) Solution 68] (Eterna round: R97, puzzle: Exclusion 1)	–	122 nM	–	74.6 nM	–	–
AUCUGCACGCUGCGGUCCUACAUGAGGAUCACCCAUGUGGUCUGGUGGCGUGGGUCACCGGACUUGGCUCGUCUUGC [salish99_S_TOV1_R5_054] (Eterna round: R97, puzzle: Sensor, turn-off variant 1)	–	19.8 nM	–	19.6 nM	–	–
GAAAAGGUAGGAUAUACGAAAAUAAAGGGUAGAAAUAAAACACAUGAGGAUCACCCAUGUAGAAGGACCAAAAG [salish99_ex2_r3_096] (puzzle: Exclusion 2)	23.3 nM	–	–	–	70.6 nM	23.2 nM
AGCCAAGCAGGAUAUAUCCGGGAUAACAUGAGGAUCACCCAUGUGACCGAUUGAUGUCCUAUAGAAGGGCUUGGGA [Mod of ViennaUCT 22 - Jieux - Exclusion 5] (Eterna round: R97, puzzle: Exclusion 5)	–	176 nM	–	43.5 nM	–	–
CCCAUGUUAGGAUAUAUGGAAGGGCGGACGGGCGCCCUAAGGUAGAAGGGACAUGAGGAUCACCCAUGUAAUAA [Diquar] (Eterna round: R97, puzzle: Exclusion 4)	–	194 nM	–	160 nM	–	–
UUGUUGUGUGUAGGAUAUGCGUAUUAUUAUUAUGCAGAAGGACAUGAGGAUCACCCAUGUGUAUUAUUAUUAUAUAUUAUAUAU [Title] (Eterna round: R96, puzzle: Exclusion NG 1)	–	43.3 nM	21.8 nM	25 nM	–	–
GUCAGCUCGUCAGGAUAUGAACAUGAGGAUCACCCAUGUAAGAUCAAGCUGCUUCGGCAGCAAGUUCAGAAGGGACGAGCUGAU [ENG2/10-B2] (Eterna round: R96, puzzle: Exclusion NG 2)	–	167 nM	136 nM	104 nM	–	–
AAGGGACAUGAGGAUCACCCAUGUGAGGAUAUGCUAUGGAAAAUAAAAAAUAAACAUAGCAGAAGGCAUAAAAA [Mat - Exclusion 1 - Eli mod - D37] (Eterna round: R96, puzzle: Exclusion 1)	–	89.2 nM	65.3 nM	99.2 nM	–	–
